The target in this experiment is A beta 1-40 oligomer (synthetic A beta1-40, HCl form, 0.1 mg/ml in PBS, incubated at 37 degrees C for one hour) (UniProt P05067). Nature of the experiment: SPR, Biacore 3000, A beta oligomer on CM5 chip, antibody as analyte. (In SPR one partner is held on a chip, and binding of the other changes the refractive index at the surface.)

For orientation: Kd means the free concentration of one partner at which half of the binding sites on the other are occupied at equilibrium, for simple one-to-one binding. Lower therefore signals higher affinity. A word on the koff: it is the first-order rate constant of dissociation. By kon is commonly meant a measure of how fast the partners come together. A high value points to fast association.

“Anti-A beta antibody 6E10 (Covance Immuno-Technologies)” showed a Kd of 2.91 nM, a koff of 0.000168 s⁻¹ and a kon of 57800 M⁻¹ s⁻¹.

Values taken from patent US20120156193A1.
